# Assay results from PMC7020226, “Enzymatic Properties of Recombinant Phospho-Mimetic Photorespiratory Glycolate Oxidases from Arabidopsis thaliana and Zea mays” (Plants, 2019).
# Positions count from the first letter of the chain named. In names and notes the source's numbering stands.
# B1: ZmGO1 (Zea mays) (protein)
# chain: MGEITNVMEYQAIAKQKLPKMAYDYYASGAEDEWTLQENREAFSRILFRPRILIDVSKIDMTTTVLGFKISMPIMVAPTAMQKMAHPDGEYATARAAAAAGTIMTLSSWATSSVEEVASTGPGIRFFQLYVYKDRKVVEQLVRRAERAGFKAIALTVDTPRLGRREADIKNRFVLPPHLTLKNFEGLDLGKMDQAADSGLASYVAGQVDRTLSWKDVKWLQTITTLPILVKGVLTAEDTRLAVANGAAGIIVSNHGARQLDYVPATISALEEVVKAARGQLPVFVDGGVRRGTDVFKALALGAAGVFVGRPVVFSLAAAGEAGVSNVLRMLRDEFELTMALSGCTSLAEITRKHIITESDKLSAIPSRL
# notes: full length, N-terminal His-tag, pET28a, expressed in Escherichia coli
# B2: ZmGO1 (Zea mays; T159V) (protein)
# chain: B1 chain with T159V
# notes: as for B1
# B3: AtGOX2 (Arabidopsis thaliana; T265D) (protein)
# chain: MEITNVTEYDAIAKAKLPKMVYDYYASGAEDQWTLQENRNAFARILFRPRILIDVNKIDMATTVLGFKISMPIMVAPTAFQKMAHPDGEYATARAASAAGTIMTLSSWATSSVEEVASTGPGIRFFQLYVYKNRKVVEQLVRRAEKAGFKAIALTVDTPRLGRRESDIKNRFTLPPNLTLKNFEGLDLGKMDEANDSGLASYVAGQIDRTLSWKDIQWLQTITNMPILVKGVLTGEDARIAIQAGAAGIIVSNHGARQLDYVPADISALEEVVKATQGRVPVFLDGGVRRGTDVFKALALGASGIFIGRPVVFALAAEGEAGVKKVLQMLRDEFELTMALSGCRSLSEITRNHIVTEWDTPRHLPRL
# B4: AtGOX1 (Arabidopsis thaliana; T265D) (protein)
# chain: MEITNVTEYDAIAKQKLPKMVYDYYASGAEDQWTLQENRNAFARILFRPRILIDVSKIDMTTTVLGFKISMPIMVAPTAMQKMAHPDGEYATARAASAAGTIMTLSSWATSSVEEVASTGPGIRFFQLYVYKNRNVVEQLVRRAERAGFKAIALTVDTPRLGRRESDIKNRFTLPPNLTLKNFEGLDLGKMDEANDSGLASYVAGQIDRTLSWKDVQWLQTITKLPILVKGVLTGEDARIAIQAGAAGIIVSNHGARQLDYVPADISALEEVVKATQGRIPVFLDGGVRRGTDVFKALALGASGIFIGRPVVFSLAAEGEAGVRKVLQMLRDEFELTMALSGCRSLKEISRNHITTEWDTPRPSARL
# B5: AtGOX2 (Arabidopsis thaliana) (protein)
# chain: B3 chain with D265T
# notes: as for B1
# B6: AtGOX1 (Arabidopsis thaliana) (protein)
# chain: B4 chain with D265T
# notes: full length (367 residues), N-terminal His-tag, pET28a, expressed in Escherichia coli
# B7: AtGOX2 (Arabidopsis thaliana; T4D) (protein)
# chain: B3 chain with T4D, D265T
# B8: AtGOX1 (Arabidopsis thaliana; T4D) (protein)
# chain: B4 chain with T4D, D265T
# B9: AtGOX2 (Arabidopsis thaliana; T158V) (protein)
# chain: B3 chain with T158V, D265T
# B10: AtGOX1 (Arabidopsis thaliana; T158V) (protein)
# chain: B4 chain with T158V, D265T
# Substrate: CCCCCCC(O)C(=O)O
# Experiment: H2O2 detection, horseradish peroxidase / o-dianisidine coupled assay
# Format: biochemical, Zea mays
# Settings: 50 mM Tris-HCl pH 8.0, 0.1 mM FMN, 30 °C
Protein,Km,kcat
B1,136 ± 19 µM,5.89 ± 0.14 s⁻¹

# Same assay, conditions: 50 mM Tris-HCl pH 8.0, 0.1 mM FMN, 30 °C, printed as T158V in Table 3
Protein,Km,kcat
B2,48 ± 36 µM,3.22 ± 0.39 s⁻¹

# Substrate: O=C(O)CO
# Experiment: purified protein
# Settings: 50 mM Tris-HCl pH 8.0, 0.1 mM FMN, 30 °C
Protein,Km,kcat
B3,388 ± 159 µM,2.06 ± 1.09 s⁻¹
B4,531 ± 50 µM,0.14 ± 0.06 s⁻¹
B5,279 ± 30 µM,10.93 ± 3.48 s⁻¹
B6,210 ± 90 µM,11.12 ± 3.08 s⁻¹
B7,390 ± 215 µM,1.40 ± 0.42 s⁻¹
B8,151 ± 44 µM,0.61 ± 0.46 s⁻¹
B9,133 ± 83 µM,2.49 ± 0.60 s⁻¹
B10,100 ± 19 µM,2.36 ± 0.47 s⁻¹

# Substrate: C[C@H](O)C(=O)O
# Experiment: purified protein
# Settings: 50 mM Tris-HCl pH 8.0, 0.1 mM FMN, 30 °C
Protein,Km,kcat
B5,2094 ± 791 µM,6.81 s⁻¹
B6,1664 ± 293 µM,9.09 s⁻¹
B1,495 ± 75 µM,10.8 s⁻¹

# Substrate: CCCCCCC(O)C(=O)O
# Experiment: H2O2 detection, horseradish peroxidase / o-dianisidine coupled assay
# Format: biochemical, Arabidopsis thaliana
# Settings: 50 mM Tris-HCl pH 8.0, 0.1 mM FMN, 30 °C
# Remark: another data set of the same source
Protein,Km,kcat
B5,487 ± 99 µM,3.78 ± 1.26 s⁻¹
B6,757 ± 82 µM,5.95 ± 0.58 s⁻¹
